# Measured values published in patent US12590147.
# B1: R4P1-C1 (phage Fab clone) (Fab, V domains shown)
# VH: QVQLQQSGPGLVKPSQTLSLTCAISGDSVSSNSAAWNWIRQSPSRGLEWLGRTYYRSKWYNDYAVSVKSRITINPDTSKNQFSLQLNSVTPEDTAVYYCARDDYDPVGMYAFDIWGQGTLVTVSS
# VL: LPVLTQPPSASGTPGQRVTISCSGSSSNIGSNTVNWYQQLPGTAPKLLIYRNTQRPSGVPDRFSGSKSGTSASLAISGLQSEDEADYYCEAWDDSMRGAAFGGGTQLTVL
# Tests used:
# [1] = molecular target: mix of 3 carriers alone (BSA + OVA + KLH) (bovine; keyhole limpet) (UniProt P02769); experiment: monoclonal phage ELISA, negative control coating with carriers alone, replicate 1
# [2] = molecular target: mix of 3 carriers alone (BSA + OVA + KLH) (bovine; keyhole limpet) (UniProt P02769); experiment: monoclonal phage ELISA, negative control coating with carriers alone, replicate 2
# Chain of mix of 3 carriers alone (BSA + OVA + KLH) (bovine; keyhole limpet) (P02769 25-607, chain 1 of 2): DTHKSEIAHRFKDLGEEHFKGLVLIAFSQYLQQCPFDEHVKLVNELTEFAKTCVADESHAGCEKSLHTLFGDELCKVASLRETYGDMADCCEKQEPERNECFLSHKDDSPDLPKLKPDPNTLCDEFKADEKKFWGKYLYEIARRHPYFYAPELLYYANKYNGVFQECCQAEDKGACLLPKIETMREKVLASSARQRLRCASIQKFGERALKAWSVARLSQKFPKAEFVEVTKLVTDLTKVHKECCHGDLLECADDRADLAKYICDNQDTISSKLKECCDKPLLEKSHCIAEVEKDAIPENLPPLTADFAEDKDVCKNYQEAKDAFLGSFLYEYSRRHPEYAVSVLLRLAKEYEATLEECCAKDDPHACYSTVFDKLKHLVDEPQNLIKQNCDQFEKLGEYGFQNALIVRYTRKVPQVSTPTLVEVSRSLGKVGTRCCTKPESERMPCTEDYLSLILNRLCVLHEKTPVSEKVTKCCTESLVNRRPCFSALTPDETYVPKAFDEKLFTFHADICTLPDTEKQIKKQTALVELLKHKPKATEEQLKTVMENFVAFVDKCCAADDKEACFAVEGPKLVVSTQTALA
# Chain of mix of 3 carriers alone (BSA + OVA + KLH) (bovine; keyhole limpet) (P01012 2-386, chain 2 of 2, further chain): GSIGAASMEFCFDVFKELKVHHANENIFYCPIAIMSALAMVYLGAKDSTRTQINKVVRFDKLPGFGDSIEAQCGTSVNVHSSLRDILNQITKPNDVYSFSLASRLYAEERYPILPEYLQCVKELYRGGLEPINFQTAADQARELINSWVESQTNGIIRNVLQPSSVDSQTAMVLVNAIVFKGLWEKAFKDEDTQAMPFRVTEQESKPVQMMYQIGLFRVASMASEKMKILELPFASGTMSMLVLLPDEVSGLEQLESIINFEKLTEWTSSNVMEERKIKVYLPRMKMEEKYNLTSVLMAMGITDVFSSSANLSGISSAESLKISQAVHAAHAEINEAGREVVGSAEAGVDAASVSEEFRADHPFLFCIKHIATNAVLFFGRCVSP
binder,measurement,setting,value
B1,ELISA signal,[1],0.06
same,ELISA signal,[2],0.06
